According to doi:10.1101/071720:

Target: recombinant pscC protein of Pseudomonas aeruginosa (PA01), His-GST fusion (Pseudomonas aeruginosa PA01)
Experiment: SEC

For “recombinant pscC protein of Pseudomonas aeruginosa (PA01), His-GST fusion (domain or fragment)”, the stoichiometry N was 2.
